Results published in patent publication US20250051465A1 (published 2025).
Each block holds one binder with its values, some of them ahead of it.

Tests used:
[1] = molecular target: T1, human LEPR extracellular domain expressed with a C-terminal myc-myc-hexahistidine tag (hLEPR.mmh) (human, UniProt P48357 22-839); assay: SPR, captured mAb, 25C
T1 construct: also called human LEPR-MMH; monomeric human LEPR
Procedure: (§1) Equilibrium dissociation constants (KD values) for LEPR binding to purified anti-LEPR monoclonal antibodies were determined using a real-time surface plasmon resonance biosensor using a Biacore 4000 instrument. All binding studies were performed in 10 mM HEPES, 150 mM NaCl, 3 mM EDTA, and 0.05% v/v Surfactant Tween-20, pH 7.4 (HBS-ET) running buffer at 25° C. and 37° C. The Biacore sensor surface was first derivatized by amine coupling with a monoclonal mouse anti-human Fc antibody (GE, #BR-1008-39) to capture anti-LEPR monoclonal antibodies. […] Kinetic association (kₐ) and dissociation (kd) rate constants were determined by fitting the real-time binding sensorgrams to a 1:1 binding model with mass transport limitation using Scrubber 2.0c curve-fitting software. Binding dissociation equilibrium constants (KD) and dissociative half-lives (t½) were calculated from the kinetic rate constants as: […]

[2] = molecular target: T2, Macaca fascicularis LEPR extracellular domain expressed with a C-terminal myc-myc-hexahistidine tag … (Macaca fascicularis, UniProt Q9MYL0 22-837 (rhesus entry)); assay: SPR, captured mAb, 25C
T2 construct: also called mfLEP.MMH
Procedure: as §1

[3] = molecular target: T3, human LEPR CRH1-Ig (D2,D3)-MMH (human, UniProt P48357 230-427, limits assumed); assay: Luminex, myc-captured LEPR domain
T3 construct: domain: CRH1-Ig (D2,D3); Transiently expressed, captured from supernatant on anti-myc beads
Procedure: (§2) Aliquots of microspheres with immobilized anti-myc monoclonal antibodies, prepared as described above, were added individually to 1 mL of the each of these protein supernatants. The microspheres were gently mixed, incubated for two hours at 25° C., washed twice with 1 mL of DBPS, centrifuged to remove the supernatant and finally resuspended in 1 mL of DPBS buffer. Forty-eight μL of anti-myc IgG coupled microspheres from individual reactions with full length human LEPR and with each of the human LEPR domain proteins were withdrawn and mixed together in 3.6 mL of PBS+20 mg/mL BSA+0.05% sodium azide (blocking buffer).
(§3) From this mixed pool, 75 μL of microspheres were plated per well on a 96 well filter plate (Millipore, Cat. No: MSBVN1250) and mixed with 25 μL of individual anti-human LEPR monoclonal antibodies (0.5 or 5 µg/mL), incubated for two hours at 25° C. and then washed twice with 200 μL of DPBS with 0.05% Tween 20 (washing buffer). […] After 30 minutes, the samples were washed twice with 200 μL of washing buffer and resuspended in 150 μL of wash buffer. The Median Fluorescence intensity (MFI) of the microspheres was measured in a Luminex Analyzer.

human LEPR FNIII-MMH = molecular target: T4, human LEPR FNIII-MMH (human, UniProt P48357 636-839, limits assumed); assay: Luminex, myc-captured LEPR domain
T4 construct: domain: FNIII; Transiently expressed, captured from supernatant on anti-myc beads
Procedure: as §2, §3

human LEPR Ig (D3)-MMH = molecular target: T5, human LEPR Ig (D3)-MMH (human, UniProt P48357 340-427, limits assumed); assay: Luminex, myc-captured LEPR domain
T5 construct: domain: Ig (D3); Transiently expressed, captured from supernatant on anti-myc beads
Procedure: as §2, §3

[4] = molecular target: T6, human LEPR CRH1 (D1,D2)-MMH (human, UniProt P48357 22-339, limits assumed); assay: Luminex, myc-captured LEPR domain
T6 construct: domain: CRH1 (D1,D2); Transiently expressed, captured from supernatant on anti-myc beads
Procedure: as §2, §3

human LEPR CRH1 (D1)-MMH = molecular target: T7, human LEPR CRH1 (D1)-MMH (human, UniProt P48357 22-229, limits assumed); assay: Luminex, myc-captured LEPR domain
T7 construct: domain: CRH1 (D1); Transiently expressed, captured from supernatant on anti-myc beads
Procedure: as §2, §3

[5] = molecular target: T8, human LEPR Ig-CRH2-FNIII-MMH (human, UniProt P48357 330-839, limits assumed); assay: Luminex, myc-captured LEPR domain
T8 construct: domain: Ig-CRH2-FNIII; Transiently expressed, captured from supernatant on anti-myc beads
Procedure: as §2, §3

human LEPR CRH2-MMH = molecular target: T9, human LEPR CRH2-MMH (human, UniProt P48357 428-634, limits assumed); assay: Luminex, myc-captured LEPR domain
T9 construct: domain: CRH2; Transiently expressed, captured from supernatant on anti-myc beads
Procedure: as §2, §3

[6] = molecular target: T10, human LEPR CRH1 (D1,D2,D3)-MMH (human, UniProt P48357 22-427, limits assumed); assay: Luminex, myc-captured LEPR domain
T10 construct: domain: CRH1-Ig (D1,D2,D3); Transiently expressed, captured from supernatant on anti-myc beads; also called CRH1-Ig (D1, D2, D3)
Procedure: as §2, §3

[7] = molecular target: rat LEPR extracellular domain expressed with a C-terminal myc-myc-hexahistidine tag (rLEPR.mmh) (rat, UniProt Q62959 22-839); assay: SPR, captured mAb, 25C and 37C
[8] = molecular target: mouse LEPR extracellular domain expressed with a C-terminal myc-myc-hexahistidine tag (mLEPR.mmh) (mouse, UniProt P48356 22-839); assay: SPR, captured mAb, 25C and 37C
[9] = molecular target: T1, human LEPR extracellular domain …; assay: SPR, captured mAb, 37C
Procedure: as §1

mouse LEPR extracellular domain expressed with a C-terminal myc-myc-hexahistidine tag (mLEPR.mmh), sequence (P48356 other isoform, or with tags, fused parts or gaps): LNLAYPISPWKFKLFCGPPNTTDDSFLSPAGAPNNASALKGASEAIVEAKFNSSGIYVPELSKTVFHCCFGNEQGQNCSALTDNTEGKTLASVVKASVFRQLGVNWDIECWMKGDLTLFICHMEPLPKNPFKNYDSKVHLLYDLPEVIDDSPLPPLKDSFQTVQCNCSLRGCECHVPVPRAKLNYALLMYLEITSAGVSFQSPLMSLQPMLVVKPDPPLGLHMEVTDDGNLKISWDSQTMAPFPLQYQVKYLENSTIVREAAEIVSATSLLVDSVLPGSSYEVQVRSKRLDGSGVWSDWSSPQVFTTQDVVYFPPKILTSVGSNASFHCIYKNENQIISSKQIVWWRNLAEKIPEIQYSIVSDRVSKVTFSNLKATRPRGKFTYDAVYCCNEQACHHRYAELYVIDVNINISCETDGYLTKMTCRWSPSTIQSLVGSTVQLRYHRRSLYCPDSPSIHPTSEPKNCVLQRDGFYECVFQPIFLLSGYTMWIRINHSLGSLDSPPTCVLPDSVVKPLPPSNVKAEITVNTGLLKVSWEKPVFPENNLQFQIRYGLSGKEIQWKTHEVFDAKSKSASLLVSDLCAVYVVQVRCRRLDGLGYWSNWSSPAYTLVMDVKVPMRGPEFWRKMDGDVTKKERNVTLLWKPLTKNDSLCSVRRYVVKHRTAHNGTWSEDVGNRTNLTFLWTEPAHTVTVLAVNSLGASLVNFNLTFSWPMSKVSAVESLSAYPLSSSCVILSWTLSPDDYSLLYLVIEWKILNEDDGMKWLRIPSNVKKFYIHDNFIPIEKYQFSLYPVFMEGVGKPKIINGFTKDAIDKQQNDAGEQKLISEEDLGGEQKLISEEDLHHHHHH
T5 sequence (P48357 other isoform, or with tags, fused parts or gaps limits assumed): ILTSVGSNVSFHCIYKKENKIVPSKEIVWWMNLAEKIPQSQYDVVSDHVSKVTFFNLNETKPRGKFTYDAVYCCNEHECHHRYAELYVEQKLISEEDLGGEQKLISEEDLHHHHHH
T4 sequence (P48357 other isoform, or with tags, fused parts or gaps limits assumed): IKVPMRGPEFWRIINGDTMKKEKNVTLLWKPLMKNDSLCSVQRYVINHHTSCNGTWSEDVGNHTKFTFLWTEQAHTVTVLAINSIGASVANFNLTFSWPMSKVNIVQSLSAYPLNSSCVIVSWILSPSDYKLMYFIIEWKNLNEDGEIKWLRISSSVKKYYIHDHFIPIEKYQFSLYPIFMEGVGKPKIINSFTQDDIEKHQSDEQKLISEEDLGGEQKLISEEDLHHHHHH
T8 sequence (P48357 other isoform, or with tags, fused parts or gaps limits assumed): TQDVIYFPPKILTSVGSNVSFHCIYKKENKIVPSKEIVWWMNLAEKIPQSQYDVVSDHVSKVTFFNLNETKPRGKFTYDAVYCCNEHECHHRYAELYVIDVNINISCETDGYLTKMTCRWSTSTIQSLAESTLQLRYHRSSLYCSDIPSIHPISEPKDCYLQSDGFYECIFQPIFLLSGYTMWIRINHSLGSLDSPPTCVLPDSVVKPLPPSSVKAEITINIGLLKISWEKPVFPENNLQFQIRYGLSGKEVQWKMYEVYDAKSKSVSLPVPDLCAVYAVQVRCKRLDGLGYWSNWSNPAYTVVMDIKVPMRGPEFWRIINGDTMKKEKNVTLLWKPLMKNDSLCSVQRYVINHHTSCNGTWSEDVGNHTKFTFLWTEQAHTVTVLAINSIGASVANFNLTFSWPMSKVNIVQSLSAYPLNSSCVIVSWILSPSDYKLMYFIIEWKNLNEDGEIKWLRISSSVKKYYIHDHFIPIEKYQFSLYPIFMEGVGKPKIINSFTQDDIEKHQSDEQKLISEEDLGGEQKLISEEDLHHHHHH
T3 sequence (P48357 other isoform, or with tags, fused parts or gaps limits assumed): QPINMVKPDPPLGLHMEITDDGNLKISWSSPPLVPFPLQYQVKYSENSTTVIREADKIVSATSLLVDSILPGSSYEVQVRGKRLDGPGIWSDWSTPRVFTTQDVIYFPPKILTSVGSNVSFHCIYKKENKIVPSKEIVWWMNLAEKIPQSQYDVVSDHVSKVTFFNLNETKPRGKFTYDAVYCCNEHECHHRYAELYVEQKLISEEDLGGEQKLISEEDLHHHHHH
rat LEPR extracellular domain expressed with a C-terminal myc-myc-hexahistidine tag (rLEPR.mmh), sequence (Q62959 other isoform, or with tags, fused parts or gaps): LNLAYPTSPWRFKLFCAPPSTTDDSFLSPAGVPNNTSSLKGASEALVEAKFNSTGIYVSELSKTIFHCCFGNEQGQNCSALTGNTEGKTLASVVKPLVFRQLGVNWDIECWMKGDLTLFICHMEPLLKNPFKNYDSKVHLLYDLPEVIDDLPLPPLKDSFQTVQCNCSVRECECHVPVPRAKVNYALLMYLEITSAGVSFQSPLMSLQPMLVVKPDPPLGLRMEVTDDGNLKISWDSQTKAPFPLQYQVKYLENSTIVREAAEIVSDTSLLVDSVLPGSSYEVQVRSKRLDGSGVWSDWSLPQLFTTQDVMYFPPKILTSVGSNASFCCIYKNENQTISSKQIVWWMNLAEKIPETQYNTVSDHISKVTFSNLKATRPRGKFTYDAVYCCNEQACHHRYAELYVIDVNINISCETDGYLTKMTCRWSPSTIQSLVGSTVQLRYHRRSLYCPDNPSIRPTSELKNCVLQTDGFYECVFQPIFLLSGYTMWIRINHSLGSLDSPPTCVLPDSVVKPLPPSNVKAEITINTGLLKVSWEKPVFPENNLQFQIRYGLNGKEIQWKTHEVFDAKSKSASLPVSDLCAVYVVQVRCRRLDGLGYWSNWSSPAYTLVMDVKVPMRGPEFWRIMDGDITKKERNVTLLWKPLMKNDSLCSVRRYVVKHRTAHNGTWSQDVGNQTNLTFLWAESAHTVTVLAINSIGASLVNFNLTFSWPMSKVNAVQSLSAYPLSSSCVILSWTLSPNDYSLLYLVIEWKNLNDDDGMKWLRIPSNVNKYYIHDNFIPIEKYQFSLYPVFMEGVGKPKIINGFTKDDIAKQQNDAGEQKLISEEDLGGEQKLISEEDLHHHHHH
T9 sequence (P48357 other isoform, or with tags, fused parts or gaps limits assumed): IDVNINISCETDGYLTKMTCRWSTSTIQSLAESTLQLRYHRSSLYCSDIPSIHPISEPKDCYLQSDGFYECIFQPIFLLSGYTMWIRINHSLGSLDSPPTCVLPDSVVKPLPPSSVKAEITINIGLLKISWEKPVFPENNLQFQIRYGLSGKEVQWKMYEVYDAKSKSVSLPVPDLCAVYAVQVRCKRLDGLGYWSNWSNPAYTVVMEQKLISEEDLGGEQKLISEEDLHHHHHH

100 nM hLEPR-MMH Bound (RU) [1]: 36 RU
Kd [1]: 20.3 nM
koff [1]: 0.000529 s⁻¹
kon [1]: 26100 M⁻¹ s⁻¹
t½ [1]: 22 min
100 nM mfLEP.MMH Bound (RU) [2]: 83 RU
Kd [2]: 11.6 nM
koff [2]: 0.000463 s⁻¹
kon [2]: 40000 M⁻¹ s⁻¹
t½ [2]: 25 min
MFI [3]: 14 MFI
MFI (human LEPR FNIII-MMH): 20 MFI
MFI (human LEPR Ig (D3)-MMH): 8 MFI
MFI [4]: 1250 MFI
MFI (human LEPR CRH1 (D1)-MMH): 8 MFI
MFI [5]: 8 MFI
MFI (human LEPR CRH2-MMH): 91 MFI
MFI [6]: 938 MFI
binding result [7]: no binding
binding result [8]: no binding
100 nM hLEPR-MMH Bound (RU) [9]: 44 RU
Kd [9]: 96.3 nM
koff [9]: 0.00341 s⁻¹
kon [9]: 35400 M⁻¹ s⁻¹
t½ [9]: 3.4 min
B1: H4H17319P2 (antibody, human IgG4, V domains shown)
VH: QVQLVESGGSVVQPGRSLRLSCAASGFTFSTYAMYWVRQTPGKGLEWVAVLYSDGSNKYYIDSVKGRFTISRDTSTNTLYLQMSSLRADDSALYYCARLNWDYWYFDLWGRGTLVTVSS
VL: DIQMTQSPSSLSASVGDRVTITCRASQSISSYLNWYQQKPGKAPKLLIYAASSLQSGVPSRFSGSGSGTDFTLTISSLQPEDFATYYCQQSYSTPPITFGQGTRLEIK
notes: Fully human antibody with human IgG4 Fc (H4H prefix)

100 nM hLEPR-MMH Bound (RU) [1]: 32 RU
Kd [1]: 8.31 nM
koff [1]: 0.000196 s⁻¹
kon [1]: 23600 M⁻¹ s⁻¹
t½ [1]: 59 min
100 nM mfLEP.MMH Bound (RU) [2]: 75 RU
Kd [2]: 4.07 nM
koff [2]: 0.000133 s⁻¹
kon [2]: 32600 M⁻¹ s⁻¹
t½ [2]: 87 min
MFI [3]: 15 MFI
MFI (human LEPR FNIII-MMH): 40 MFI
MFI (human LEPR Ig (D3)-MMH): 7 MFI
MFI [4]: 2650 MFI
MFI (human LEPR CRH1 (D1)-MMH): 9 MFI
MFI [5]: 14 MFI
MFI (human LEPR CRH2-MMH): 116 MFI
MFI [6]: 1750 MFI
binding result [7]: no binding
binding result [8]: no binding
100 nM hLEPR-MMH Bound (RU) [9]: 61 RU
Kd [9]: 14.8 nM
koff [9]: 0.000438 s⁻¹
kon [9]: 29500 M⁻¹ s⁻¹
t½ [9]: 26 min
B2: H4H17321P2 (antibody, human IgG4, V domains shown)
VH: QVQLVESGGGVVQPGRSLRLSCEASGFSSSDNAMYWVRQAPGKGLEWVSVIYHDGSYKYYEDSVKGRFTIARDNSKNTLYLQMNSLRAEDTAVYYCARYNWNHWYFDVWGRGTLVTVSS
VL: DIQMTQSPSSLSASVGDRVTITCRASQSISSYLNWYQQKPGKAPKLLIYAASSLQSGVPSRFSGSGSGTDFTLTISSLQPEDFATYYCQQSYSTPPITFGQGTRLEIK
notes: as for B1
